Reference: the supplement of paper PMC10567573

B1: KRT18 (parent)
chain: PQVRDWSHYFKIIEDLRAQIFANT

Variants of: B1
Experiment: protein stability index of a GFP-peptide fusion (GPS, HEK-293T) (PSI 1-6); higher = more stable
Settings: c terminus: a fixed tail appended
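Also: lentivirally expressed fusions sorted by FACS into six bins by GFP to DsRed ratio, PSI derived from sequencing read proportions per bin multiplied by bin number.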

Variant | protein stability index
PQVRDWEHYFKIIEDLRAQIFANT [S7E] | 2.12
PQVRDWVHYFKIIEDLRAQIFANT [S7V] | 2.53
PQVRDWIHYFKIIEDLRAQIFANT [S7I] | 2.13
PQVRDWAHYFKIIEDLRAQIFANT [S7A] | 2.53
PQVRDWTHYFKIIEDLRAQIFANT [S7T] | 2.82
PQVRDWMHYFKIIEDLRAQIFANT [S7M] | 2.18
PQVRDWSHYSKIIEDLRAQIFANT [F10S] | 2.15
PQVRDWSHYAKIIEDLRAQIFANT [F10A] | 2.29
PQVRDWSHYKKIIEDLRAQIFANT [F10K] | 1.86
PQVRDWSHYMKIIEDLRAQIFANT [F10M] | 2.56
PQVRDWSHYPKIIEDLRAQIFANT [F10P] | 3.18
PQVRDWSHYYKIIEDLRAQIFANT [F10Y] | 1.54
PQVRDWSHYCKIIEDLRAQIFANT [F10C] | 2.25
PQVRDWSHYNKIIEDLRAQIFANT [F10N] | 1.89
PQVRDWSHYDKIIEDLRAQIFANT [F10D] | 1.9
PQVRDWSHYEKIIEDLRAQIFANT [F10E] | 2.26
PQVRDWSHYGKIIEDLRAQIFANT [F10G] | 2.4
PQVRDWSHYRKIIEDLRAQIFANT [F10R] | 2.58
PQVRDWSHYLKIIEDLRAQIFANT [F10L] | 2.17
PQVRDWSHYVKIIEDLRAQIFANT [F10V] | 1.69
PQVRDWSHYTKIIEDLRAQIFANT [F10T] | 3.01
PQVRDWSHYHKIIEDLRAQIFANT [F10H] | 2.57
PQVRDWSHYWKIIEDLRAQIFANT [F10W] | 2.7
PQVRDWSHYQKIIEDLRAQIFANT [F10Q] | 3.22

Variant | protein stability index
PQVRDWSHYIKIIEDLRAQIFANT [F10I] | 2.23
PQVRDWSHYFSIIEDLRAQIFANT [K11S] | 2.75
PQVRDWSHYFRIIEDLRAQIFANT [K11R] | 2.11
PQVRDWSHYFVIIEDLRAQIFANT [K11V] | 2.99
PQVRDWSHYFHIIEDLRAQIFANT [K11H] | 2.25
PQVRDWSHYFEIIEDLRAQIFANT [K11E] | 1.52
PQVRDWSHYFWIIEDLRAQIFANT [K11W] | 3.08
PQVRDWSHYFMIIEDLRAQIFANT [K11M] | 1.42
PQVRDWSHYFYIIEDLRAQIFANT [K11Y] | 1.35
PQVRDWSHYFGIIEDLRAQIFANT [K11G] | 1.74
PQVRDWSHYFDIIEDLRAQIFANT [K11D] | 1.84
PQVRDWSHYFTIIEDLRAQIFANT [K11T] | 1.98
PQVRDWSHYFCIIEDLRAQIFANT [K11C] | 2.12
PQVRDWSHYFQIIEDLRAQIFANT [K11Q] | 2.5
PQVRDWSHYFNIIEDLRAQIFANT [K11N] | 1.49
PQVRDWSHYFPIIEDLRAQIFANT [K11P] | 1.55
PQVRDWSHYFAIIEDLRAQIFANT [K11A] | 2.1
PQVRDWSHYFIIIEDLRAQIFANT [K11I] | 2.25
PQVRDWSHYFLIIEDLRAQIFANT [K11L] | 3.02
PQVRDASHYFKIIEDLRAQIFANT [W6A] | 1.69
PQVRDRSHYFKIIEDLRAQIFANT [W6R] | 2.13
PQVRDHSHYFKIIEDLRAQIFANT [W6H] | 1.85
PQVRDSSHYFKIIEDLRAQIFANT [W6S] | 2.14
PQVRDFSHYFKIIEDLRAQIFANT [W6F] | 2.3

Variant | protein stability index
PQVRDYSHYFKIIEDLRAQIFANT [W6Y] | 2.13
PQVRDGSHYFKIIEDLRAQIFANT [W6G] | 2.14
PQVRDISHYFKIIEDLRAQIFANT [W6I] | 2.48
PQVRDCSHYFKIIEDLRAQIFANT [W6C] | 1.88
PQVRDMSHYFKIIEDLRAQIFANT [W6M] | 2.15
PQVRDTSHYFKIIEDLRAQIFANT [W6T] | 3.16
PQVRDNSHYFKIIEDLRAQIFANT [W6N] | 2.18
PQVRDLSHYFKIIEDLRAQIFANT [W6L] | 2.22
PQVRDDSHYFKIIEDLRAQIFANT [W6D] | 2.61
PQVRDVSHYFKIIEDLRAQIFANT [W6V] | 1.92
PQVRDKSHYFKIIEDLRAQIFANT [W6K] | 1.97
PQVRDESHYFKIIEDLRAQIFANT [W6E] | 2.97
PQVRDQSHYFKIIEDLRAQIFANT [W6Q] | 2.41
PQVRDPSHYFKIIEDLRAQIFANT [W6P] | 2.21
PQVWDWSHYFKIIEDLRAQIFANT [R4W] | 2.58
PQVHDWSHYFKIIEDLRAQIFANT [R4H] | 2.25
PQVSDWSHYFKIIEDLRAQIFANT [R4S] | 2.61
PQVKDWSHYFKIIEDLRAQIFANT [R4K] | 2.29
PQVDDWSHYFKIIEDLRAQIFANT [R4D] | 2.84
PQVIDWSHYFKIIEDLRAQIFANT [R4I] | 2.32
PQVADWSHYFKIIEDLRAQIFANT [R4A] | 3.02
PQVTDWSHYFKIIEDLRAQIFANT [R4T] | 2.13
PQVVDWSHYFKIIEDLRAQIFANT [R4V] | 2.09
PQVNDWSHYFKIIEDLRAQIFANT [R4N] | 2.63

Variant | protein stability index
PQVFDWSHYFKIIEDLRAQIFANT [R4F] | 1.6
PQVYDWSHYFKIIEDLRAQIFANT [R4Y] | 1.61
PQVEDWSHYFKIIEDLRAQIFANT [R4E] | 2.43
PQVPDWSHYFKIIEDLRAQIFANT [R4P] | 2.47
PQVQDWSHYFKIIEDLRAQIFANT [R4Q] | 2.53
PQVGDWSHYFKIIEDLRAQIFANT [R4G] | 2.37
PQVMDWSHYFKIIEDLRAQIFANT [R4M] | 2.69
PQVLDWSHYFKIIEDLRAQIFANT [R4L] | 1.93
PQVCDWSHYFKIIEDLRAQIFANT [R4C] | 1.99
PQVRDWSHYFKMIEDLRAQIFANT [I12M] | 1.92
PQVRDWSHYFKAIEDLRAQIFANT [I12A] | 2.53
PQVRDWSHYFKHIEDLRAQIFANT [I12H] | 2.36
PQVRDWSHYFKPIEDLRAQIFANT [I12P] | 2.24
PQVRDWSHYFKGIEDLRAQIFANT [I12G] | 2.72
PQVRDWSHYFKQIEDLRAQIFANT [I12Q] | 2.41
PQVRDWSHYFKEIEDLRAQIFANT [I12E] | 2.45
PQVRDWSHYFKKIEDLRAQIFANT [I12K] | 1.85
PQVRDWSHYFKFIEDLRAQIFANT [I12F] | 1.9
PQVRDWSHYFKNIEDLRAQIFANT [I12N] | 3.55
PQVRDWSHYFKLIEDLRAQIFANT [I12L] | 2.27
PQVRDWSHYFKDIEDLRAQIFANT [I12D] | 3.17
PQVRDWSHYFKCIEDLRAQIFANT [I12C] | 2.38
